Test results published in US20180245061A1, “Modified Heterocyclase” (THE UNIVERSITY COURT OF THE UNIVERSITY OF ABERDEEN, priority 2014, published 2018).
Where no end group is shown, it is not given here.

Experiments:
LynD = assay: Trans activation of LynD by exogenous leader peptide (turnover of test peptide ITACITFCAYDG); assay type: biochemical, Lyngbya sp.; details: for acceleration of turnover of the test peptide by LynD: 5.5 μM leader peptide in trans, 5 μM LynD, 100 μM ITACITFCAYDG; for heterocycles observed in test peptide with LynD plus leader in trans: overnight incubation
Method: (§1) For all heterocyclization reactions, […] PatE′ (and variants,) was incubated with 2 μM enzyme in 150 mM NaCl, 10 mM HEPES pH 7.4, 1 mM TCEP, 5 mM ATP and 5 mM MgCl2 for 16 h at 37° C. Samples were analyzed by ESI or MALDI MS (LCT, Micromass or 4800 MALDI TOF/TOF Analyzer, ABSciex). For cis trans activation studies, 100 μM ITACITFCAYDG synthetic test peptide (Peptide Protein Research Ltd) was reacted with 5 μM heterocyclase enzyme in the presence and absence of 5.5 μM LAELSEEAL synthetic peptide, or 5.5 μM full-length PatE′4 leader peptide. The reaction was carried out in 150 mM NaCl, 10 mM HEPES pH 7.4, 1 mM TCEP, 5 mM ATP and 5 mM MgCl2 for 16 h at 37° C. and analyzed as above. Synthetic peptides were purchased from Peptide Protein Research Ltd.
To assess the relative rates of heterocyclization under various conditions, heterocyclization reactions were monitored at regular intervals using MALDI TOF MS. In each case, reactions of PatE′ or ITACITFCAYDG synthetic peptide were prepared as described and incubated at 37° C. prior to addition of LynD allowing a 0 time-point to be recorded. Time points for each reaction were recorded as follows: For PatE′ with LynD (standard conditions), PatE′ with LynD in the presence of α-β-methelene ATP, and ITACITFCAYDG with LynD fusion, the reaction was monitored after 1, 5, 10, 15, 20, 30, 45, 60, 90, 120 and 180 minutes; For ITACITFCAYDG with LynD in the absence, and presence of either minimal leader LAELSEEAL peptide, or full length PatE′4 leader peptide, the reaction was monitored after 15, 30, 60, 120, 240 and 1440 minutes. Reactions were set up in triplicate, and each sample was analyzed by MALDI TOF MS in triplicate (9 spectra recorded in total for each reaction at each time point). For each time point, the total ion count for each species (0, 1 and 2 heterocycles) was recorded, averaged and the percentage of each species was calculated. The rate of each reaction relative to the wild-type reaction (PatE′+LynD) was determined. LC-MS of reaction mixtures was performed on a Waters LC-MS system (LCT mass spectrometer and 2795 HPLC) using a Waters MassPrep column (2.1×10 mm). Solvent B was 0.1% formic acid and Solvent A was MeCN containing 0.1% formic acid. Gradient 0-0.5 min 98% B, 0.5-2.5 min linear to 2% B, 2.5-4.5 min 2% B, 4.5-4.6 min linear to 98% B, […] 98% B at 0.05 ml min−1. The following conditions were used on the mass spectrometer: ESI +ve, capillary voltage 3.5 kV, cone voltage 40 V, mass range 500-2500 m/z, RF lens 500. The spectra were combined across the eluted protein peak and the charged ion series processed using Water's MaxEnt algorithm to give protein mass, using peak width at half height on the strongest peak in the ion envelope. […]

ITACITACAYDGE = assay: Heterocyclization of leaderless substrate peptide ITACITACAYDGE by fused-MicD/PatD enzymes (LC-ESI-MS, MALDI-TOF-MS, HPLC-ESI-MS); assay type: biochemical; details: 20-30 μM enzyme, 100-110 μM peptide, 5 mM ATP, 5 mM MgCl2, 27° C., 16 h
Method: The Reaction was performed in 100 mM Tris pH 8.0 supplemented with 150 mM NaCl, 5 mM ATP and 5 mM MgCl2 and contained 20 μM enzyme and 100 μM peptide. The mixture was incubated at 27° C. for 16 h. The unprocessed substrate has a molecular weight of 1329.5 Da.
Reaction was performed in 50 mM Bicine pH 9.0 supplemented with 150 mM NaCl, 5 mM ATP and 5 mM MgCl2 and contained 30 μM enzyme and 110 μM peptide. The mixture was incubated at 27° C. for 16 h. The unprocessed substrate has a molecular weight of 1219.5 Da.
Each reaction contained 100 mM Tris pH 8.0, 150 mM NaCl, 5 mM ATP and 5 mM MgCl2, 20 μM of the respective enzyme and 100 μM substrate peptide, and was incubated at 27° C. for 16 h. The unprocessed substrate has a molecular weight of 1329.5 Da.
Reaction was performed in 50 mM Bicine pH 9.0 supplemented with 150 mM NaCl, 5 mM ATP and 5 mM MgCl2 and contained 30 μM enzyme and 110 μM peptide. The mixture was incubated at 27° C. for 16 h. The unprocessed substrate has a molecular weight of 1329.5 Da.
Only 1 peak (9.254 min) indicates the reaction product is only one species. […] Multiple peaks of low intensity compared with m/z=1258.5 can be attributed to noise. Product was purified from the enzyme and ATP using size exclusion chromatography (Superdex 30, GE Healthcare) and exchanged into 50 mM Bicine pH 9.0, 500 mM NaCl and 5% DMSO.

[1] = test system: ITACITFCAYDG synthetic test peptide; assay: Heterocyclization of leaderless core/test peptide ITACITFCAYDG (LCMS, MALDI TOF MS time course); assay type: biochemical; details: for heterocycles formed in core peptide ITACITFCAYDG: no leader
Method: After 16 h core peptide incubated with either TruD or LynD only 1 heterocycle is formed. In contrast when incubated with LynD fusion, the heterocyclization reaction is nearly complete—the sample containing predominantly 2 heterocycles after just 2 h. PatE′ and LynD reaction after 2 h is shown as a reference.
as §1, with “Synthetic peptides were purchased from Peptide Protein Research Ltd.” left out
To assess the relative rates of heterocyclization under various conditions, heterocyclization reactions were monitored at regular intervals using MALDI TOF MS. In each case, reactions of PatE′ or ITACITFCAYDG synthetic peptide were prepared as described and incubated at 37° C. prior to addition of LynD allowing a 0 time-point to be recorded. Time points for each reaction were recorded as follows: For PatE′ with LynD (standard conditions), PatE′ with LynD in the presence of α-β-methelene ATP, and ITACITFCAYDG with LynD fusion, the reaction was monitored after 1, 5, 10, 15, 20, 30, 45, 60, 90, 120 and 180 minutes; For ITACITFCAYDG with LynD in the absence, and presence of either minimal leader LAELSEEAL peptide, or full length PatE′4 leader peptide, the reaction was monitored after 15, 30, 60, 120, 240 and 1440 minutes. Reactions were set up in triplicate, and each sample was analyzed by MALDI TOF MS in triplicate (9 spectra recorded in total for each reaction at each time point). […] The rate of each reaction relative to the wild-type reaction (PatE′+LynD) was determined. […]

Row | Molecule | acceleration of turnover of the test peptide by LynD (LynD) [fold] | heterocycles observed in test peptide with LynD plus leader in trans (LynD) | also measured
1 | full-length PatE leader: full-length leader peptide from trypsin digestion of quadruple mutant PatE′4 (D2Y, K3E, K4E, R16E) | 6.7 | both heterocycles are observed | 
2 | LAELSEEAL (ends and bridges not checked) [minimal leader, residues 26 to 34 of PatE] | 5.0 | both heterocycles are observed | 
3 | MicD-R16-GLEAS-5GA: fused-MicD: leader from R16 extended by GLEAS prior to the GA linker (SEQ ID NO: 43) (protein, Modified heterocyclase MicroD_R16_GLEAS_5GA) MSHHHHHHDYDENLYFQGSRLTAGQLSSQLAELSEEALGDAGLEASGAGAGAGAGAKLMQSTPLLQIQPHFHVEVIEPKQVYLLGEQANYALTGQLYCQILPLLDGQHSREQIVEKLDGEVPSEYIDYVLDRLAEKGYLTEAAPELSSEVAAFWSELGIAPPVAAEALRQSVTLTPVGNISEVTVAALTTALRDIGISVQTPTEAGSPTALNVVLTDDYLQPELAKINKQALESQQTWLLVKPVGSVLWLGPVFVPGKTGCWDCLAHRLRGNREVEASVLQQKQAQQQRNGQSGSVIGCLPTARATLPSTLQTGLQFAATEIAKWIVKHHVKATAPGTVFFPTLDGKIITFNHTVIDLKSHVLVRRSQCPSCGDRQILHRQGFEPVKLVSRRKHFTHDGGHRAFTPEQTVQKYQHLVSPITGVVTELVRLTDPANPLVHTYKAGHAFGSATTLRGLRNTLKYKSSGKGKTDIQSRASGLCEAIERYSGIFQGDEPRKRATLAELGDLALHPESLLYFSNTQYANREELNAQGSAAAYRWIPNRFDVSQAIDWTPVWSLTEQKHKYVPTAFCYYGYPLPEEQRFCKADSNGNAAGNTLEEAILQGFLELVERDSIAMWWYNRIRRPAVDLSTFDEPYFVDLQQFYQQQNRELWVLDVTADLGIPAFAGFSRRTVGTSERISIGFGAHLDPTIAILRALTEVSQVGLELDKIPDDKLDGESKDWMLNVTVENHPWLAPDPSVPMKTASDYPKRWSDDIHTDVMNCVKTAQTAGLEVMVLDQTRPDIGLNVVKVIIPGMRTFWTRFGQGRLYDIPVKLGWLDAPLAEEELNQTNIPF |  |  | heterocyclized species produced from ITACITACAYDGE (ITACITACAYDGE): no effect on heterocyclization
4 | LynD fusion: residues 21-38 of the PatE leader and an eleven residue long linker added to the N-terminus of LynD (SEQ ID NO: 39) (protein, Modified heterocyclase) MSHHHHHHDYDENLYFQGSQLSSQLAELSEEALGDAGAGAGAGAGAGAMQSTPLLQIQPHFHVEVIEPKQVYLLGEQANHALTGQLYCQILPLLNGQYTLEQIVEKLDGEVPPEYIDYVLERLAEKGYLTEAAPELSSEVAAFWSELGIAPPVAAEALRQPVTLTPVGNISEVTVAALTTALRDIGISVQTPTEAGSPTALNVVLTDDYLQPELAKINKQALESQQTWLLVKPVGSVLWLGPVFVPGKTGCWDCLAHRLRGNREVEASVLRQKQAQQQRNGQSGSVIGCLPTARATLPSTLQTGLQFAATEIAKWIVKYHVNATAPGTVFFPTLDGKIITLNHSILDLKSHILIKRSQCPTCGDPKILQHRGFEPLKLESRPKQFTSDGGHRGTTPEQTVQKYQHLISPVTGVVTELVRITDPANPLVHTYRAGHSFGSATSLRGLRNTLKHKSSGKGKTDSQSKASGLCEAVERYSGIFQGDEPRKRATLAELGDLAIHPEQCLCFSDGQYANRETLNEQATVAHDWIPQRFDASQAIEWTPVWSLTEQTHKYLPTALCYYHYPLPPEHRFARGDSNGNAAGNTLEEAILQGFMELVERDGVALWWYNRLRRPAVDLGSFNEPYFVQLQQFYRENDRDLWVLDLTADLGIPAFAGVSNRKTGSSERLILGFGAHLDPTIAILRAVTEVNQIGLELDKVPDENLKSDATDWLITEKLADHPYLLPDTTQPLKTAQDYPKRWSDDIYTDVMTCVNIAQQAGLETLVIDQTRPDIGLNVVKVTVPGMRHFWSRFGEGRLYDVPVKLGWLDEPLTEAQMNPTPMPF |  |  | heterocycles formed in core peptide ITACITFCAYDG ([1]; after 2 h, LCMS): 2; rate of processing both cysteines in the test peptide ([1]; compared with native LynD on full length PatE′ substrate): comparable to the full length PatE′ substrate
5 | TruD: cyanobactin heterocyclase from the trunkamide pathway, SEQ ID NO: 3 (protein, Prochloron sp. 06037A) MQPTALQIKPHFHVEIIEPKQVYLLGEQGNHALTGQLYCQILPFLNGEYTREQIVEKLDGQVPEEYIDFVLSRLVEKGYLTEVAPELSLEVAAFWSELGIAPSVVAEGLKQPVTVTTAGKGIREGIVANLAAALEEAGIQVSDPRDPKAPKAGDSTAQLQVVLTDDYLQPELAAINKEALERQQPWLLVKPVGSILWLGPLFVPGETGCWHCLAQRLQGNREVEASVLQQKRALQERNGQNKNGAVSCLPTARATLPSTLQTGLQWAATEIAKWMVKRHLNAIAPGTARFPTLAGKIFTFNQTTLELKAHPLSRRPQCPTCGDRETLQRRGFEPLKLESRPKHFTSDGGHRAMTPEQTVQKYQHLIGPITGVVTELVRISDPANPLVHTYRAGHSFGSATSLRGLRNVLRHKSSGKGKTDSQSRASGLCEAIERYSGIFQGDEPRKRATLAELGDLAIHPEQCLHFSDRQYDNRESSNERATVTHDWIPQRFDASKAHDWTPVWSLTEQTHKYLPTALCYYRYPFPPEHRFCRSDSNGNAAGNTLEEAILQGFMELVERDSVCLWWYNRVSRPAVDLSSFDEPYFLQLQQFYQTQNRDLWVLDLTADLGIPAFVGVSNRKAGSSERIILGFGAHLDPTVAILRALTEVNQIGLELDKVSDESLKNDATDWLVNATLAASPYLVADASQPLKTAKDYPRRWSDDIYTDVMTCVEIAKQAGLETLVLDQTRPDIGLNVVKVIVPGMRFWSRFGSGRLYDVPVKLGWREQPLAEAQMNPTPMPF |  |  | heterocycles formed in core peptide ITACITFCAYDG ([1]; after 16 h / overnight, 5 μM enzyme, 100 μM peptide, 37° C.): 1
